The target of one test is T1, LZTR1 R810W-FLAG (human, UniProt Q8N653 1-840).
T1 construct: Stably expressed in U87 cells by lentivirus; also called LZTR1-FLAG-R810W; LZTR1 RW; not shown: FLAG tag
T1 sequence (looked up): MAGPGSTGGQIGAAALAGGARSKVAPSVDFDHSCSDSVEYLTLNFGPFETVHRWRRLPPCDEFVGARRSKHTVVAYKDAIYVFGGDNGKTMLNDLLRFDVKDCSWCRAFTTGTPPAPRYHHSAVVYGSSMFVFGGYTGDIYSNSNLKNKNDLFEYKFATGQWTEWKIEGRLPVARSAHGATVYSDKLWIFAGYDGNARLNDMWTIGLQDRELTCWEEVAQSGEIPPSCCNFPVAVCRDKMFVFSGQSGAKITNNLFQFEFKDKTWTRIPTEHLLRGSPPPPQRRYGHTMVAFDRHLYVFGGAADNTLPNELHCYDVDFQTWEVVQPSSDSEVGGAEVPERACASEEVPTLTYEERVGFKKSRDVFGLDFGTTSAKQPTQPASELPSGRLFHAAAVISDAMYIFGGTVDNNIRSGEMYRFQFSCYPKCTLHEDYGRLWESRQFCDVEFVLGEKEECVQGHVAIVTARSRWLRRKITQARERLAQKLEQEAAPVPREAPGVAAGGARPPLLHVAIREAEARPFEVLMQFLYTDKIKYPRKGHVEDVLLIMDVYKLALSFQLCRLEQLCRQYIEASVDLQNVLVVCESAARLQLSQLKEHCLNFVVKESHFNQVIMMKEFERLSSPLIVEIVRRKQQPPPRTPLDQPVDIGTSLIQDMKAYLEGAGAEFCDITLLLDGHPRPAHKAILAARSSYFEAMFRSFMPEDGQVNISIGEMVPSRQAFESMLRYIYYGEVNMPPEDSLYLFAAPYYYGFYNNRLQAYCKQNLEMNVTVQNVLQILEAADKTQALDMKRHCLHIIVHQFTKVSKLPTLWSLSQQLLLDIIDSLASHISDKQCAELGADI
The experiment in a line: IP/MS, LZTR1 R810W-FLAG, U87. Put shortly: (§1)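 Read-out: spectral counts from LC-MS/MS (Orbitrap Fusion) after MaxQuant identification. Variable modifications were Met oxidation, protein N-terminal acetylation and N/Q deamidation.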

The target of a further test is T2, LZTR1-FLAG (human, UniProt Q8N653 1-840).
T2 construct: Expressed in HEK 293T, HeLa or U87 cells; used as cell lysate; also called LZTR1 wild type-FLAG; LZTR1 WT; not shown: FLAG tag at the C-terminus
T2 sequence (looked up): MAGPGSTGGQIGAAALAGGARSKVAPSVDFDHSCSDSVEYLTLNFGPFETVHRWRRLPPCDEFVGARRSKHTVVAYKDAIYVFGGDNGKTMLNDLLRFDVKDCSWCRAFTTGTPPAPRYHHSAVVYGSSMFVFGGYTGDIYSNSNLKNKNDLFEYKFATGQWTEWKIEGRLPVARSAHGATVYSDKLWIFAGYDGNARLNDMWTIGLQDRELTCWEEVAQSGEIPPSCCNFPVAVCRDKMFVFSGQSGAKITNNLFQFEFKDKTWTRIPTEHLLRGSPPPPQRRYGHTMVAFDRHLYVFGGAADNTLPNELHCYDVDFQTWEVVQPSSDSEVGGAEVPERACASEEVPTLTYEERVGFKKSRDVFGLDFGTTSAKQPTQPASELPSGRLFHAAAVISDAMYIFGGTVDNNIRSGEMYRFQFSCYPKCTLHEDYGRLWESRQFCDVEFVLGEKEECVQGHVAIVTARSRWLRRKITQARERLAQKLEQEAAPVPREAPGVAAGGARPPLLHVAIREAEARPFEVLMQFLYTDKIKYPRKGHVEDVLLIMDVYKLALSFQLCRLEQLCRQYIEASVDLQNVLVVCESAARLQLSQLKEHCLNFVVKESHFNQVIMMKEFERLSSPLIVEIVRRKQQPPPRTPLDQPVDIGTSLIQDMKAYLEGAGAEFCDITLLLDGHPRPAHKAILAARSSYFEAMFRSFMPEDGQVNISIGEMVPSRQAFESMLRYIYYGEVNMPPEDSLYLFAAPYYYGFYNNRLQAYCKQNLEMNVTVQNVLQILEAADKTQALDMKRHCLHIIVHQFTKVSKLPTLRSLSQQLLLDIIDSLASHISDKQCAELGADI
The experiment in a line: IP/MS, LZTR1 wild type-FLAG, U87. Put shortly:
as §1

B1: POR (other, human, UniProt P16435 2-677, looked up)
chain: GDSHVDTSSTVSEAVAEEVSLFSMTDMILFSLIVGLLTYWFLFRKKKEEVPEFTKIQTLTSSVRESSFVEKMKKTGRNIIVFYGSQTGTAEEFANRLSKDAHRYGMRGMSADPEEYDLADLSSLPEIDNALVVFCMATYGEGDPTDNAQDFYDWLQETDVDLSGVKFAVFGLGNKTYEHFNAMGKYVDKRLEQLGAQRIFELGLGDDDGNLEEDFITWREQFWPAVCEHFGVEATGEESSIRQYELVVHTDIDAAKVYMGEMGRLKSYENQKPPFDAKNPFLAAVTTNRKLNQGTERHLMHLELDISDSKIRYESGDHVAVYPANDSALVNQLGKILGADLDVVMSLNNLDEESNKKHPFPCPTSYRTALTYYLDITNPPRTNVLYELAQYASEPSEQELLRKMASSSGEGKELYLSWVVEARRHILAILQDCPSLRPPIDHLCELLPRLQARYYSIASSSKVHPNSVHICAVVVEYETKAGRINKGVATNWLRAKEPAGENGGRALVPMFVRKSQFRLPFKATTPVIMVGPGTGVAPFIGFIQERAWLRQQGKEVGETLLYYGCRRSDEDYLYREELAQFHRDGALTQLNVAFSREQSHKVYVQHLLKQDREHLWKLIEGGAHIYVCGDARNMARDVQNTFYDIVAELGAMEHAQAVDYIKKLMTKGRYSLDVWS
As for B1, the binding result in the test with LZTR1 R810W-FLAG and with LZTR1-FLAG was “binds” in each case.

B2: RABGEF1 (other, human, UniProt Q9UJ41 1-491, looked up)
chain: MSLKSERRGIHVDQSDLLCKKGCGYYGNPAWQGFCSKCWREEYHKARQKQIQEDWELAERLQREEEEAFASSQSSQGAQSLTFSKFEEKKTNEKTRKVTTVKKFFSASSRVGSKKEIQEAKAPSPSINRQTSIETDRVSKEFIEFLKTFHKTGQEIYKQTKLFLEGMHYKRDLSIEEQSECAQDFYHNVAERMQTRGKVPPERVEKIMDQIEKYIMTRLYKYVFCPETTDDEKKDLAIQKRIRALRWVTPQMLCVPVNEDIPEVSDMVVKAITDIIEMDSKRVPRDKLACITKCSKHIFNAIKITKNEPASADDFLPTLIYIVLKGNPPRLQSNIQYITRFCNPSRLMTGEDGYYFTNLCCAVAFIEKLDAQSLNLSQEDFDRYMSGQTSPRKQEAESWSPDACLGVKQMYKNLDLLSQLNERQERIMNEAKKLEKDLIDWTDGIAREVQDIVEKYPLEIKPPNQPLAAIDSENVENDKLPPPLQPQVYAG
With B2, the binding result with LZTR1 R810W-FLAG and with LZTR1-FLAG was “binds” in each case.

B3: PPP6C (other, human, UniProt O00743 1-305, looked up)
chain: MAPLDLDKYVEIARLCKYLPENDLKRLCDYVCDLLLEESNVQPVSTPVTVCGDIHGQFYDLCELFRTGGQVPDTNYIFMGDFVDRGYYSLETFTYLLALKAKWPDRITLLRGNHESRQITQVYGFYDECQTKYGNANAWRYCTKVFDMLTVAALIDEQILCVHGGLSPDIKTLDQIRTIERNQEIPHKGAFCDLVWSDPEDVDTWAISPRGAGWLFGAKVTNEFVHINNLKLICRAHQLVHEGYKFMFDEKLVTVWSAPNYCYRCGNIASIMVFKDVNTREPKLFRAVPDSERVIPPRTTTPYFL
As for B3, the binding result in the test with LZTR1 R810W-FLAG and with LZTR1-FLAG was “binds” in each case.

B4: RANBP9 (other, human, UniProt Q96S59 1-729, looked up)
chain: MSGQPPPPPPQQQQQQQQLSPPPPAALAPVSGVVLPAPPAVSAGSSPAGSPGGGAGGEGLGAAAAALLLHPPPPPPPATAAPPPPPPPPPPPASAAAPASGPPAPPGLAAGPGPAGGAPTPALVAGSSAAAPFPHGDSALNEQEKELQRRLKRLYPAVDEQETPLPRSWSPKDKFSYIGLSQNNLRVHYKGHGKTPKDAASVRATHPIPAACGIYYFEVKIVSKGRDGYMGIGLSAQGVNMNRLPGWDKHSYGYHGDDGHSFCSSGTGQPYGPTFTTGDVIGCCVNLINNTCFYTKNGHSLGIAFTDLPPNLYPTVGLQTPGEVVDANFGQHPFVFDIEDYMREWRTKIQAQIDRFPIGDREGEWQTMIQKMVSSYLVHHGYCATAEAFARSTDQTVLEELASIKNRQRIQKLVLAGRMGEAIETTQQLYPSLLERNPNLLFTLKVRQFIEMVNGTDSEVRCLGGRSPKSQDSYPVSPRPFSSPSMSPSHGMNIHNLASGKGSTAHFSGFESCSNGVISNKAHQSYCHSNKHQSSNLNVPELNSINMSRSQQVNNFTSNDVDMETDHYSNGVGETSSNGFLNGSSKHDHEMEDCDTEMEVDSSQLRRQLCGGSQAAIERMIHFGRELQAMSEQLRRDCGKNTANKKMLKDAFSLLAYSDPWNSPVGNQLDPIQREPVCSALNSAILETHNLPKQPPLALAMGQATQCLGLMARSGIGSCAFATVEDYLH
Turning to B4, the binding result with LZTR1 R810W-FLAG and with LZTR1-FLAG was “binds” each time.

B5: RAP1GDS1 (other, human, UniProt P52306 1-607, looked up)
chain: MDNLSDTLKKLKITAVDKTEDSLEGCLDCLLQALAQNNTETSEKIQASGILQLFASLLTPQSSCKAKVANIIAEVAKNEFMRIPCVDAGLISPLVQLLNSKDQEVLLQTGRALGNICYDSHEGRSAVDQAGGAQIVIDHLRSLCSITDPANEKLLTVFCGMLMNYSNENDSLQAQLINMGVIPTLVKLLGIHCQNAALTEMCLVAFGNLAELESSKEQFASTNIAEELVKLFKKQIEHDKREMIFEVLAPLAENDAIKLQLVEAGLVECLLEIVQQKVDSDKEDDITELKTGSDLMVLLLLGDESMQKLFEGGKGSVFQRVLSWIPSNNHQLQLAGALAIANFARNDANCIHMVDNGIVEKLMDLLDRHVEDGNVTVQHAALSALRNLAIPVINKAKMLSAGVTEAVLKFLKSEMPPVQFKLLGTLRMLIDAQAEAAEQLGKNVKLVERLVEWCEAKDHAGVMGESNRLLSALIRHSKSKDVIKTIVQSGGIKHLVTMATSEHVIMQNEALVALALIAALELGTAEKDLESAKLVQILHRLLADERSAPEIKYNSMVLICALMGSECLHKEVQDLAFLDVVSKLRSHENKSVAQQASLTEQRLTVES
Take B5: the binding result in the test with LZTR1 R810W-FLAG and in the test with LZTR1-FLAG was “binds” throughout.

B6: PTOV1 (other, human, UniProt Q86YD1 1-416, looked up)
chain: MVRPRRAPYRSGAGGPLGGRGRPPRPLVVRAVRSRSWPASPRGPQPPRIRARSAPPMEGARVFGALGPIGPSSPGLTLGGLAVSEHRLSNKLLAWSGVLEWQEKRRPYSDSTAKLKRTLPCQAYVNQGENLETDQWPQKLIMQLIPQQLLTTLGPLFRNSQLAQFHFTNRDCDSLKGLCRIMGNGFAGCMLFPHISPCEVRVLMLLYSSKKKIFMGLIPYDQSGFVSAIRQVITTRKQAVGPGGVNSGPVQIVNNKFLAWSGVMEWQEPRPEPNSRSKRWLPSHVYVNQGEILRTEQWPRKLYMQLIPQQLLTTLVPLFRNSRLVQFHFTKDLETLKSLCRIMDNGFAGCVHFSYKASCEIRVLMLLYSSEKKIFIGLIPHDQGNFVNGIRRVIANQQQVLQRNLEQEQQQRGMGG
On to B6, for which the binding result with LZTR1 R810W-FLAG and with LZTR1-FLAG was “binds” throughout.
